{
  "source": "paper PMC10397247",
  "binders": {"B1": {"name": "4H2343-AA (peptide)", "chain": "DKIAALEAKIAALEAKIAALEAKNAALEG"}},
  "assay_in_all_cases": "two-hybrid library CCmax;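 also: natural log of median RNA to DNA barcode read ratio; higher means stronger binding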",
  "key": {"4H2343-AA": {"biological_target": "T1, 4H2343-AA", "T1 chain": "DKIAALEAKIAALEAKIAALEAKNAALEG"}, "4H2466-AA": {"biological_target": "T2, 4H2466-AA", "T2 chain": "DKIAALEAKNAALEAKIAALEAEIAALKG", "settings": "mean of both orientations"}, "4H249-AA": {"biological_target": "T3, 4H249-AA", "T3 chain": "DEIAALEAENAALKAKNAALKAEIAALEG", "settings": "mean of both orientations"}, "4H2592-AA": {"biological_target": "T4, 4H2592-AA", "T4 chain": "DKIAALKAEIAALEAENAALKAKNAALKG", "settings": "mean of both orientations"}, "4H2732-AA": {"biological_target": "T5, 4H2732-AA", "T5 chain": "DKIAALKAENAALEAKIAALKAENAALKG", "settings": "mean of both orientations"}, "4H2774-AA": {"biological_target": "T6, 4H2774-AA", "T6 chain": "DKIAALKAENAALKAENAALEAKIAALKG", "settings": "mean of both orientations"}, "4H2931-AA": {"biological_target": "T7, 4H2931-AA", "T7 chain": "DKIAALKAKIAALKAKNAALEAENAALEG", "settings": "mean of both orientations"}, "4H3001-AA": {"biological_target": "T8, 4H3001-AA", "T8 chain": "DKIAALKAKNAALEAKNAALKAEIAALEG", "settings": "mean of both orientations"}, "4H3015-AA": {"biological_target": "T9, 4H3015-AA", "T9 chain": "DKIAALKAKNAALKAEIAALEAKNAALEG", "settings": "mean of both orientations"}, "4H3073-AA": {"biological_target": "T10, 4H3073-AA", "T10 chain": "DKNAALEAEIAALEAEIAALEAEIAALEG", "settings": "mean of both orientations"}, "4H3438-AA": {"biological_target": "T11, 4H3438-AA", "T11 chain": "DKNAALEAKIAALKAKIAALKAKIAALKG", "settings": "mean of both orientations"}, "4H347-AA": {"biological_target": "T12, 4H347-AA", "T12 chain": "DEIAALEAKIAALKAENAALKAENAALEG", "settings": "mean of both orientations"}, "4H406-AA": {"biological_target": "T13, 4H406-AA", "T13 chain": "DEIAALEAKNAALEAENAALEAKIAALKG", "settings": "mean of both orientations"}, "4H452-AA": {"biological_target": "T14, 4H452-AA", "T14 chain": "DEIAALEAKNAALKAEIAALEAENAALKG", "settings": "mean of both orientations"}, "4H56-AA": {"biological_target": "T15, 4H56-AA", "T15 chain": "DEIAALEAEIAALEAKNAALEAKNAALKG", "settings": "mean of both orientations"}, "4H_APH": {"biological_target": "T16, 4H_APH", "T16 chain": "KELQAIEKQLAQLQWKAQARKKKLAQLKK", "settings": "mean of both orientations"}, "4H_BCR": {"biological_target": "T17, 4H_BCR", "T17 chain": "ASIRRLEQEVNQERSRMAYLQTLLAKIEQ", "settings": "mean of both orientations"}, "4H_GCN4": {"biological_target": "4H_GCN4", "sequence (chain, as listed by the source)": "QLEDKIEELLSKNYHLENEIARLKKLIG", "settings": "mean of both orientations"}, "GCN2_T": {"biological_target": "GCN2_T"}},
  "data": [
    {"binder": "B1", "values": [
      {"measurement": "interaction score", "setting": "4H2343-AA", "value": 1.95},
      {"measurement": "interaction score", "setting": "4H2466-AA", "value": -1.39},
      {"measurement": "interaction score", "setting": "4H249-AA", "value": -1.75},
      {"measurement": "interaction score", "setting": "4H2592-AA", "value": -1.2},
      {"measurement": "interaction score", "setting": "4H2732-AA", "value": -1.84},
      {"measurement": "interaction score", "setting": "4H2774-AA", "value": -1.54},
      {"measurement": "interaction score", "setting": "4H2931-AA", "value": -1.61},
      {"measurement": "interaction score", "setting": "4H3001-AA", "value": -1.8},
      {"measurement": "interaction score", "setting": "4H3015-AA", "value": -1.83},
      {"measurement": "interaction score", "setting": "4H3073-AA", "value": 0.404},
      {"measurement": "interaction score", "setting": "4H3438-AA", "value": 0.393},
      {"measurement": "interaction score", "setting": "4H347-AA", "value": -1.77},
      {"measurement": "interaction score", "setting": "4H406-AA", "value": -1.85},
      {"measurement": "interaction score", "setting": "4H452-AA", "value": -1.86},
      {"measurement": "interaction score", "setting": "4H56-AA", "value": -1.45},
      {"measurement": "interaction score", "setting": "4H_APH", "value": -1.88},
      {"measurement": "interaction score", "setting": "4H_BCR", "value": -2.04},
      {"measurement": "interaction score", "setting": "4H_GCN4", "value": -1.32},
      {"measurement": "interaction score", "setting": "GCN2_T", "value": -2.25}
    ]}
  ]
}
